Source: the MegaScale stability set (Tsuboyama et al. 2023)

B1: 2M8U (parent)
chain: TKAQVIEAFKVFDRDGNGYVTVDYLRKVLNELGDMMPADEIEEMIYEADPQNSGYVQYETFVGMLFL

Variants of: B1
Experiment: folding stability dG (cDNA display proteolysis); higher = more stable
Conditions: PBS, room temperature

| Variant | folding stability dG |
| --- | --- |
| TKAQVIEAFKVFDRDGNGRVTVDYLRKVLNELGDMMPADEIEEMIYEADPQNSGYVQYETFVGMLFL [Y19R] | 2.76 kcal/mol |
| TKAQVIEAFKVFDRDGNGHVTVDYLRKVLNELGDMMPADEIEEMIYEADPQNSGYVQYETFVGMLFL [Y19H] | 2.94 kcal/mol |
| TKAQVIEAFKVFDRDGNGCVTVDYLRKVLNELGDMMPADEIEEMIYEADPQNSGYVQYETFVGMLFL [Y19C] | 2.74 kcal/mol |
| TKAQVIEAFKVFDRDGNGAVTVDYLRKVLNELGDMMPADEIEEMIYEADPQNSGYVQYETFVGMLFL [Y19A] | 2.7 kcal/mol |
| TKAQVIEAFKVFDRDGNGVVTVDYLRKVLNELGDMMPADEIEEMIYEADPQNSGYVQYETFVGMLFL [Y19V] | 3.05 kcal/mol |
| TKAQVIEAFKVFDRDGNGTVTVDYLRKVLNELGDMMPADEIEEMIYEADPQNSGYVQYETFVGMLFL [Y19T] | 3.29 kcal/mol |
| TKAQVIEAFKVFDRDGNGLVTVDYLRKVLNELGDMMPADEIEEMIYEADPQNSGYVQYETFVGMLFL [Y19L] | 3.26 kcal/mol |
| TKAQVIEAFKVFDRDGNGMVTVDYLRKVLNELGDMMPADEIEEMIYEADPQNSGYVQYETFVGMLFL [Y19M] | 3.3 kcal/mol |
| TKAQVIEAFKVFDRDGNGWVTVDYLRKVLNELGDMMPADEIEEMIYEADPQNSGYVQYETFVGMLFL [Y19W] | 3.21 kcal/mol |
| TKAQVIEAFKVFDRDGNGFVTVDYLRKVLNELGDMMPADEIEEMIYEADPQNSGYVQYETFVGMLFL [Y19F] | 3.66 kcal/mol |
| TKAQVIEAFKVFDRDGNGGVTVDYLRKVLNELGDMMPADEIEEMIYEADPQNSGYVQYETFVGMLFL [Y19G] | 1.95 kcal/mol |
| TKAQVIEAFKVFDRDGNGKVTVDYLRKVLNELGDMMPADEIEEMIYEADPQNSGYVQYETFVGMLFL [Y19K] | 3.07 kcal/mol |
| TKAQVIEAFKVFDRDGNGNVTVDYLRKVLNELGDMMPADEIEEMIYEADPQNSGYVQYETFVGMLFL [Y19N] | 2.75 kcal/mol |
| TKAQVIEAFKVFDRDGNGDVTVDYLRKVLNELGDMMPADEIEEMIYEADPQNSGYVQYETFVGMLFL [Y19D] | 2.21 kcal/mol |
| TKAQVIEAFKVFDRDGNGQVTVDYLRKVLNELGDMMPADEIEEMIYEADPQNSGYVQYETFVGMLFL [Y19Q] | 2.91 kcal/mol |
| TKAQVIEAFKVFDRDGNGIVTVDYLRKVLNELGDMMPADEIEEMIYEADPQNSGYVQYETFVGMLFL [Y19I] | 3.21 kcal/mol |
| TKAQVIEAFKVFDRDGNGEVTVDYLRKVLNELGDMMPADEIEEMIYEADPQNSGYVQYETFVGMLFL [Y19E] | 2.63 kcal/mol |
| TKAQVIEAFKVFDRDGNGPVTVDYLRKVLNELGDMMPADEIEEMIYEADPQNSGYVQYETFVGMLFL [Y19P] | 1.9 kcal/mol |
| TKAQVIEAFKVFDRDGNGSVTVDYLRKVLNELGDMMPADEIEEMIYEADPQNSGYVQYETFVGMLFL [Y19S] | 2.9 kcal/mol |
| TKAQVIEAFKVFDRDGNGYVQVDYLRKVLNELGDMMPADEIEEMIYEADPQNSGYVQYETFVGMLFL [T21Q] | 3.7 kcal/mol |
| TKAQVIEAFKVFDRDGNGYVNVDYLRKVLNELGDMMPADEIEEMIYEADPQNSGYVQYETFVGMLFL [T21N] | 3.24 kcal/mol |
| TKAQVIEAFKVFDRDGNGYVSVDYLRKVLNELGDMMPADEIEEMIYEADPQNSGYVQYETFVGMLFL [T21S] | 3.64 kcal/mol |
| TKAQVIEAFKVFDRDGNGYVLVDYLRKVLNELGDMMPADEIEEMIYEADPQNSGYVQYETFVGMLFL [T21L] | 3.55 kcal/mol |
| TKAQVIEAFKVFDRDGNGYVDVDYLRKVLNELGDMMPADEIEEMIYEADPQNSGYVQYETFVGMLFL [T21D] | 3.16 kcal/mol |
| TKAQVIEAFKVFDRDGNGYVMVDYLRKVLNELGDMMPADEIEEMIYEADPQNSGYVQYETFVGMLFL [T21M] | 3.4 kcal/mol |
| TKAQVIEAFKVFDRDGNGYVCVDYLRKVLNELGDMMPADEIEEMIYEADPQNSGYVQYETFVGMLFL [T21C] | 3.42 kcal/mol |
| TKAQVIEAFKVFDRDGNGYVKVDYLRKVLNELGDMMPADEIEEMIYEADPQNSGYVQYETFVGMLFL [T21K] | 3.47 kcal/mol |

| Variant | folding stability dG |
| --- | --- |
| TKAQVIEAFKVFDRDGNGYVIVDYLRKVLNELGDMMPADEIEEMIYEADPQNSGYVQYETFVGMLFL [T21I] | 2.89 kcal/mol |
| TKAQVIEAFKVFDRDGNGYVAVDYLRKVLNELGDMMPADEIEEMIYEADPQNSGYVQYETFVGMLFL [T21A] | 3.65 kcal/mol |
| TKAQVIEAFKVFDRDGNGYVEVDYLRKVLNELGDMMPADEIEEMIYEADPQNSGYVQYETFVGMLFL [T21E] | 3.65 kcal/mol |
| TKAQVIEAFKVFDRDGNGYVWVDYLRKVLNELGDMMPADEIEEMIYEADPQNSGYVQYETFVGMLFL [T21W] | 3.22 kcal/mol |
| TKAQVIEAFKVFDRDGNGYVFVDYLRKVLNELGDMMPADEIEEMIYEADPQNSGYVQYETFVGMLFL [T21F] | 3.29 kcal/mol |
| TKAQVIEAFKVFDRDGNGYVGVDYLRKVLNELGDMMPADEIEEMIYEADPQNSGYVQYETFVGMLFL [T21G] | 3.51 kcal/mol |
| TKAQVIEAFKVFDRDGNGYVPVDYLRKVLNELGDMMPADEIEEMIYEADPQNSGYVQYETFVGMLFL [T21P] | 3.46 kcal/mol |
| TKAQVIEAFKVFDRDGNGYVVVDYLRKVLNELGDMMPADEIEEMIYEADPQNSGYVQYETFVGMLFL [T21V] | 3.05 kcal/mol |
| TKAQVIEAFKVFDRDGNGYVHVDYLRKVLNELGDMMPADEIEEMIYEADPQNSGYVQYETFVGMLFL [T21H] | 4.14 kcal/mol |
| TKAQVIEAFKVFDRDGNGYVYVDYLRKVLNELGDMMPADEIEEMIYEADPQNSGYVQYETFVGMLFL [T21Y] | 3.38 kcal/mol |
| TKAQVIEAFKVFDRDGNGYVRVDYLRKVLNELGDMMPADEIEEMIYEADPQNSGYVQYETFVGMLFL [T21R] | 3.74 kcal/mol |
| TKAQVIEAFKVFDRDGNGYNTVDYLRKVLNELGDMMPADEIEEMIYEADPQNSGYVQYETFVGMLFL [V20N] | 2.76 kcal/mol |
| TKAQVIEAFKVFDRDGNGYFTVDYLRKVLNELGDMMPADEIEEMIYEADPQNSGYVQYETFVGMLFL [V20F] | 2.47 kcal/mol |
| TKAQVIEAFKVFDRDGNGYCTVDYLRKVLNELGDMMPADEIEEMIYEADPQNSGYVQYETFVGMLFL [V20C] | 3.04 kcal/mol |
| TKAQVIEAFKVFDRDGNGYKTVDYLRKVLNELGDMMPADEIEEMIYEADPQNSGYVQYETFVGMLFL [V20K] | 1.46 kcal/mol |
| TKAQVIEAFKVFDRDGNGYTTVDYLRKVLNELGDMMPADEIEEMIYEADPQNSGYVQYETFVGMLFL [V20T] | 3.33 kcal/mol |
| TKAQVIEAFKVFDRDGNGYWTVDYLRKVLNELGDMMPADEIEEMIYEADPQNSGYVQYETFVGMLFL [V20W] | 2.96 kcal/mol |
| TKAQVIEAFKVFDRDGNGYSTVDYLRKVLNELGDMMPADEIEEMIYEADPQNSGYVQYETFVGMLFL [V20S] | 2.45 kcal/mol |
| TKAQVIEAFKVFDRDGNGYDTVDYLRKVLNELGDMMPADEIEEMIYEADPQNSGYVQYETFVGMLFL [V20D] | 2.73 kcal/mol |
| TKAQVIEAFKVFDRDGNGYYTVDYLRKVLNELGDMMPADEIEEMIYEADPQNSGYVQYETFVGMLFL [V20Y] | 1.85 kcal/mol |
| TKAQVIEAFKVFDRDGNGYETVDYLRKVLNELGDMMPADEIEEMIYEADPQNSGYVQYETFVGMLFL [V20E] | 2.16 kcal/mol |
| TKAQVIEAFKVFDRDGNGYITVDYLRKVLNELGDMMPADEIEEMIYEADPQNSGYVQYETFVGMLFL [V20I] | 3.62 kcal/mol |
| TKAQVIEAFKVFDRDGNGYGTVDYLRKVLNELGDMMPADEIEEMIYEADPQNSGYVQYETFVGMLFL [V20G] | 1.83 kcal/mol |
| TKAQVIEAFKVFDRDGNGYMTVDYLRKVLNELGDMMPADEIEEMIYEADPQNSGYVQYETFVGMLFL [V20M] | 2.59 kcal/mol |
| TKAQVIEAFKVFDRDGNGYPTVDYLRKVLNELGDMMPADEIEEMIYEADPQNSGYVQYETFVGMLFL [V20P] | 2.1 kcal/mol |
| TKAQVIEAFKVFDRDGNGYATVDYLRKVLNELGDMMPADEIEEMIYEADPQNSGYVQYETFVGMLFL [V20A] | 2.73 kcal/mol |
| TKAQVIEAFKVFDRDGNGYQTVDYLRKVLNELGDMMPADEIEEMIYEADPQNSGYVQYETFVGMLFL [V20Q] | 2.15 kcal/mol |

| Variant | folding stability dG |
| --- | --- |
| TKAQVIEAFKVFDRDGNGYHTVDYLRKVLNELGDMMPADEIEEMIYEADPQNSGYVQYETFVGMLFL [V20H] | 1.98 kcal/mol |
| TKAQVIEAFKVFDRDGNGYLTVDYLRKVLNELGDMMPADEIEEMIYEADPQNSGYVQYETFVGMLFL [V20L] | 2.9 kcal/mol |
| TKAQVIEAFKVFDRDGNGYRTVDYLRKVLNELGDMMPADEIEEMIYEADPQNSGYVQYETFVGMLFL [V20R] | 2.18 kcal/mol |
| TKAQVIEAFKVFDRDGNGYVTFDYLRKVLNELGDMMPADEIEEMIYEADPQNSGYVQYETFVGMLFL [V22F] | 2.52 kcal/mol |
| TKAQVIEAFKVFDRDGNGYVTGDYLRKVLNELGDMMPADEIEEMIYEADPQNSGYVQYETFVGMLFL [V22G] | 2.36 kcal/mol |
| TKAQVIEAFKVFDRDGNGYVTEDYLRKVLNELGDMMPADEIEEMIYEADPQNSGYVQYETFVGMLFL [V22E] | 2.47 kcal/mol |
| TKAQVIEAFKVFDRDGNGYVTADYLRKVLNELGDMMPADEIEEMIYEADPQNSGYVQYETFVGMLFL [V22A] | 2.95 kcal/mol |
| TKAQVIEAFKVFDRDGNGYVTIDYLRKVLNELGDMMPADEIEEMIYEADPQNSGYVQYETFVGMLFL [V22I] | 3.48 kcal/mol |
| TKAQVIEAFKVFDRDGNGYVTMDYLRKVLNELGDMMPADEIEEMIYEADPQNSGYVQYETFVGMLFL [V22M] | 3 kcal/mol |
| TKAQVIEAFKVFDRDGNGYVTKDYLRKVLNELGDMMPADEIEEMIYEADPQNSGYVQYETFVGMLFL [V22K] | 3.3 kcal/mol |
| TKAQVIEAFKVFDRDGNGYVTHDYLRKVLNELGDMMPADEIEEMIYEADPQNSGYVQYETFVGMLFL [V22H] | 3.5 kcal/mol |
| TKAQVIEAFKVFDRDGNGYVTCDYLRKVLNELGDMMPADEIEEMIYEADPQNSGYVQYETFVGMLFL [V22C] | 2.88 kcal/mol |
| TKAQVIEAFKVFDRDGNGYVTNDYLRKVLNELGDMMPADEIEEMIYEADPQNSGYVQYETFVGMLFL [V22N] | 2.76 kcal/mol |
| TKAQVIEAFKVFDRDGNGYVTDDYLRKVLNELGDMMPADEIEEMIYEADPQNSGYVQYETFVGMLFL [V22D] | 1.76 kcal/mol |
| TKAQVIEAFKVFDRDGNGYVTLDYLRKVLNELGDMMPADEIEEMIYEADPQNSGYVQYETFVGMLFL [V22L] | 3.49 kcal/mol |
| TKAQVIEAFKVFDRDGNPYVTVDYLRKVLNELGDMMPADEIEEMIYEADPQNSGYVQYETFVGMLFL [G18P] | 2.71 kcal/mol |
| TKAQVIEAFKVFDRDGNYYVTVDYLRKVLNELGDMMPADEIEEMIYEADPQNSGYVQYETFVGMLFL [G18Y] | 2.36 kcal/mol |
| TKAQVIEAFKVFDRDGNLYVTVDYLRKVLNELGDMMPADEIEEMIYEADPQNSGYVQYETFVGMLFL [G18L] | 2.92 kcal/mol |
| TKAQVIEAFKVFDRDGNMYVTVDYLRKVLNELGDMMPADEIEEMIYEADPQNSGYVQYETFVGMLFL [G18M] | 2.62 kcal/mol |
| TKAQVIEAFKVFDRDGNSYVTVDYLRKVLNELGDMMPADEIEEMIYEADPQNSGYVQYETFVGMLFL [G18S] | 2.42 kcal/mol |
| TKAQVIEAFKVFDRDGNNYVTVDYLRKVLNELGDMMPADEIEEMIYEADPQNSGYVQYETFVGMLFL [G18N] | 2.23 kcal/mol |
| TKAQVIEAFKVFDRDGNWYVTVDYLRKVLNELGDMMPADEIEEMIYEADPQNSGYVQYETFVGMLFL [G18W] | 2.68 kcal/mol |
| TKAQVIEAFKVFDRDGNVYVTVDYLRKVLNELGDMMPADEIEEMIYEADPQNSGYVQYETFVGMLFL [G18V] | 2.61 kcal/mol |
| TKAQVIEAFKVFDRDGNQYVTVDYLRKVLNELGDMMPADEIEEMIYEADPQNSGYVQYETFVGMLFL [G18Q] | 2.3 kcal/mol |
| TKAQVIEAFKVFDRDGNTYVTVDYLRKVLNELGDMMPADEIEEMIYEADPQNSGYVQYETFVGMLFL [G18T] | 2.38 kcal/mol |
| TKAQVIEAFKVFDRDGNRYVTVDYLRKVLNELGDMMPADEIEEMIYEADPQNSGYVQYETFVGMLFL [G18R] | 2.06 kcal/mol |
